Measurements: patent publication US20080058270A1 (published 2008)

Target: T1, lecithin:cholesterol acyltransferase (LCAT), purified from human plasma (human, UniProt P04180 25-440)
T1 sequence (looked up): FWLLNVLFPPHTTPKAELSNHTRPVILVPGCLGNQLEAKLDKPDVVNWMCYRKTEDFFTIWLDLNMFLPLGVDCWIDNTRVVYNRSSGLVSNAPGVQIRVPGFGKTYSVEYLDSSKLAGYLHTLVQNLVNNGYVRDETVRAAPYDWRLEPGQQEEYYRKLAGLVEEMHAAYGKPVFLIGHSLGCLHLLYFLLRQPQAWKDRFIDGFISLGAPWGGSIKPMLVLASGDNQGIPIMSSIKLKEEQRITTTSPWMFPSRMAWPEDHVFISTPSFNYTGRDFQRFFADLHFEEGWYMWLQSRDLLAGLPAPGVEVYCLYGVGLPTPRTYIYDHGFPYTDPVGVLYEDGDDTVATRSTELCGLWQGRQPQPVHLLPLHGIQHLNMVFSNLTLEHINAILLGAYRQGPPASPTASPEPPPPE
Assay: cell-based or functional assay

## LDDLLQKWAEAFNQLLKK [peptide 237]
  ACTIVITY (%) LCAT: 111%
